Target: BFIV21FLAG: BFIV21 with the FLAG epitope on the amino terminal end, expressed on RP9 cells (chicken)
Test: indirect immunofluorescence, flow cytometry on RP9-BFIV21FLAG cells (RP9-BFIV21: 21; RP9: 20)

log fluorescent mean channel number (mean log fluorescent channel number): 191
Substance: FLAG-specific monoclonal antibody M2 (Kodak-IBI) (tool reagent)
